In patent US20220380456A1 (UNITED KINGDOM RESEARCH AND INNOVATION, published 2022):

Key:
MSP1E3D1 = biological target: T1, MSP1E3D1 (human Apo A-I derived, engineered); test: ELISA on coated MSP variants, n=3
T1 construct: also called MSP1E1D3 MSP variant
T1 chain: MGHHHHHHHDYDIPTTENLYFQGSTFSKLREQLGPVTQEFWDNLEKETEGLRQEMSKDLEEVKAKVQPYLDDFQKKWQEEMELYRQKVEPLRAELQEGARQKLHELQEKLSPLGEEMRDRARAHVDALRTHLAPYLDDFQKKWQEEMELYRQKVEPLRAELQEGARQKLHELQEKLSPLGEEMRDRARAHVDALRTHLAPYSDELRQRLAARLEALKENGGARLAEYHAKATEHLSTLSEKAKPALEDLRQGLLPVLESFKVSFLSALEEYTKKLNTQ

[1] = biological target: T2, His6-TEV-MSP1D1 (CA15914) (human Apo A-I derived, engineered, biotinylated with EZ-link NHS-Biotin for the BLI experiment only); test: ELISA, purified MegaBody on coated MSP (Apo- or Nanodisc-state) vs non-coated wells, A405
T2 construct: Membrane scaffold protein; The entry holds the 6xHis tag, the TEV cleavage site and MSP1D1; Tested in Apo-state (lipid free) and in Nanodisc-state (POPC nanodisc, two MSP1D1 per nanodisc)
T2 chain: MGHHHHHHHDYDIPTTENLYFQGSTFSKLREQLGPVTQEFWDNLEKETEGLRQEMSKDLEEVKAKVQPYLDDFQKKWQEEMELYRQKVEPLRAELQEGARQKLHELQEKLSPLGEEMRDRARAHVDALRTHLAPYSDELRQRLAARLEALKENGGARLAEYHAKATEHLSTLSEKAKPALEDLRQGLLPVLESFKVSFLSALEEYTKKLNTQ

[2] = biological target: T3, His6-TEV-MSP2N2 (CA15915) (human Apo A-I derived, engineered, UniProt P02647 79-267, limits assumed); test: as above
T3 construct: Membrane scaffold protein; The entry holds the 6xHis tag, the TEV cleavage site and MSP2N2; Tested in Apo-state, in Nanodisc-state, and as the belt of nanodiscs loaded with GABAAR-β3

[3] = biological target: T2, His6-TEV-MSP1D1 (CA15914); test: BLI (OctetRED96), biotinylated Apo MSP1D1 on streptavidin sensors, 1:2 binding model
[4] = biological target: T2, His6-TEV-MSP1D1 (CA15914); test: BLI (OctetRED96), biotinylated MSP1D1 (Apo-state) on streptavidin sensors, 1:2 binding model, 30 °C; biotinylated Apo-state MSP1D1 on the SA sensor; 30 C; 1:2 binding model

B1: MbNbF3^c7HopQ MegaBody (CA15192) (other)
chain: QVQLVESGGGLVQTKTTTSVIDTTNDAQNLLTQAQTIVNTLKDYCPILIAKSSSSNGGTNNANTPSWQTAGGGKNSCATFGAEFSAASDMINNAQKIVQETQQLSANQPKNITQPHNLNLNSPSSLTALAQKMLKNAQSQAEILKLANQVESDFNKLSSGHLKDYIGKCDASAISSANMTMQNQKNNWGNGCAGVEETQSLLKTSAADFNNQTPQINQAQNLANTLIQELGNNTYEQLSRLLTNDNGTNSKTSAQAINQAVNNLNERAKTLAGGTTNSPAYQATLLALRSVLGLWNSMGYAVICGGYTKSPGENNQKDFHYTDENGNGTTINCGGSTNSNGTHSYNGTNTLKADKNVSLSIEQYEKIHEAYQILSKALKQAGLAPLNSKGEKLEAHVTTSKYGSLRLSCAASGSGFGPNVMGWYRQAPGKRRELVATINRIGNINYGDSVKGRFTLSREIAVNTVYLQMNSLKPEDAANYYCYAAKYGVDYWGKGTQVTVSSHHHHHHEPEA
notes: MegaBody: c7HopQ scaffold inserted in the first β-turn of Nanobody MP1521_F3; Entry includes 6xHis and EPEA tags; also called MbF3^c7HopQ MegaBody
- binding result (MSP1E3D1): binds
- fold ELISA signal over no MSP [1]: ≥ 4 fold
- fold ELISA signal over no MSP [2]: ≥ 4 fold
- koff [3]: 0.00103 s⁻¹
- kon [3]: 44000 M⁻¹ s⁻¹
- Kd [4]: 23.5 nM
